Experimental findings from the supplement of paper PMC11502859 are described below.
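Further: lentiviral eGFP-IRES-mCherry reporter pool sorted by FACS 96 h post-transduction, gated on mCherry-high cells, Illumina read counts normalized per million, median across four biological replicates.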

This series deals with HEK293T. Briefly: median enrichment of reporter reads in eGFP-reduced (low/intermediate) vs eGFP-high sorted cells (eGFP-extension fusion abundance) (ratio); higher = stronger loss of eGFP-fusion protein abundance (more destabilising extension).
In the case of “SRRRLGLCSQGLWLMMIDAPFSHALSSHLASAGQNPSPDVCNLCLEYLGVVEEQIIPSKHQALGFLEQAESQ [USP39]”, the median enrichment came out at 3.94.

“RVYTRTMWYVARPGPGVRLGQPQLSLPLLLIQGVTRHLSLCYFWPQQEPVLGYFCPCSSQPNSGLAHPSPPPKAAEAVGGTGP [KCNJ11]”: the median enrichment came to 4.66. The figure for “SAGRGSAPRKCLLCPGAERRCLLGAGLPPCGSCAPWPGPCPAAPVSPSLSPVLVLACSSSQPRESFPTCPRLLSLPRPVVPSW [ARHGAP39]” is 4.7.

In the case of LKQPV [RIC3], the median enrichment is 1.01. For the substance “WSPQHQGGPSLKRKEPTQVRGLPIPPSQVSTFALPPSHWGPCRSWSGLTVPSPGTQLKGPQPKL [CAND2]”, the median enrichment was 8.57.

For the substance RHRRTPGDFLYICRLRLFVTSKWDIV [TAF4], the median enrichment worked out at 12. “CPCSRVSQGHFAATAAFPEIKQPGAVASELRGAGGRARTLGLGHGALSLKATFLTYSLYITQRP [CTNS]”: the median enrichment amounted to 3.76.

As for WGFRSAT [KIF15], the median enrichment amounted to 1.06. The figure for EGTLQSLFHIFKPH [HMCN1] is 7.78; for “EEESLPPPKYWAALSLPRDHPSLPAMCTIMTNLFGYAVVLPFWGLGSTRRLCLQCRNLFSLCVAGARAQGPCLCIFNKYSFSK [GPR108]” it is 0.994. Next, “RRGEGRPAVDSLILGRSLGCAAISFCECANTKLSRAKL [SLC25A25]”: 8.98. Take “CGSLRTTASLLLTSVATEAERQSDTSTGAPGEMGPA [PEX26]”: the median enrichment is 0.412. Next, EPGNPYSFSNTGSFI [ADAM30]: 0.267; “CDPCKWDSPPVHEAWLLQYLLVEELYSKMKRKNKQTNKKKHKKRKNTFLYLTMFFEYVFFL [RBFOX2]”: 0.264; SRPEVQATLASGTPPRL [RTP5]: 0.536. Turning to YCPRAHRQLQGALVANKQHL [RAB3C], the median enrichment came to 2.13. In the case of REAWPR [ELOVL1], the median enrichment was 0.427.

Consider QLYSTKIFKDWFLF [DIS3], for which the median enrichment turned out to be 11.1. The figure for “CGRCTRQEEGDWGPWPGTVLLRGRRRLQQSHGSPRGEGCLSRFLRPRRSDFWARGHARAVQSWPGPPVGLLCSLPSLPPDAGP [FRMD8]” is 5.53. Consider “SKRPGRKPPPLKVVFVTVLWSIVLKMGNYILLCQGQQTPAVKGIPSARRLFGACMFIAPARPDRGLLHKPCLVHFFTCKGTEC [AHNAK]”, for which the median enrichment came out at 7.93. The figure for YHH [FAM229B] is 0.611; for YNFFHLRNYCDL [CHD6] it is 19.1. The figure for “RGSGQECHSQCPDPEIGPIPCLQPCLEAIQ [SLC22A14]” is 2.88; for CCC [Cys03] it is 1.07; for LPEKLCQLQGGSDFRKVV [HERPUD2] it is 0.919. With KTTFPKENIRGFHC [CPVL], the median enrichment was found to be 0.477. On to “RACQEVTTSLLPAAWARTALRFEGNMDPFGPAGTGHIPHPRATMGVGNFLVCFLIYL [PLEKHH3]”, for which the median enrichment amounted to 8.55. Consider “LWRQALQGGPDPRVVLTVLTVYLSSPRENASFEHTVPTICIEQKDFCFTEDKRCFYFRPRREEFALNL [CNOT8]”, for which the median enrichment is 15.4.

As for LLLLLLLL [Leu08], the median enrichment came to 6.62. Take “QSKQGRNVQVNNKSPHTLLTPWRQLLFRSFICLLQESFLPLT [SIRPD]”: the median enrichment is 4.67. In the case of YPALLPSDGHPSRGLSHTVPLRSA [CTDSP2], the median enrichment was determined as 9.24. On to QPHGAVLLMLEAS [ESPL1], for which the median enrichment turned out to be 6.52. With “QESSSRGTEDWGQEESGTQPSCPLTPGRPSPHPRVPQSYPLSACVARPDKHLQMAAAPTWDLPRRLEQKGLSLGWCFSSRVLG [TMEM141]”, the median enrichment is 3.62. With “LTFSGNRADDYNIFFLMLTFLKIHIWDSYYQGSTYVNLQFMFQDICQMYYRCL [SUV39H2]”, the median enrichment is 10.1. Consider WARVVARPCTTAIANQSPKAKFTCCSHPQ [MAGEB2], for which the median enrichment came to 8.12. With QEPHALKKTWEDMVAWNCHPRIPC [ZIM3], the median enrichment is 3.53. Take EEEEE [Glu05]: the median enrichment came out at 1.41.

As for WKLRF [TRMT11], the median enrichment is 1.93. The figure for KKKKKKKK [Lys08] is 1.65. “LTYLSLSRSQAVRGNRSHLLSLQASVCLCLRTWILDFNDAVDNDGRKGVGC [MGA]”: the median enrichment was determined as 8.5. The figure for “LMSMSEGKENFGHQNPAPSELKELIYFMKLILLCVCSWC [GALNT15]” is 12.1; for RAAPPSGQKLK [ALG1L] it is 0.251. Regarding SDPAGSINLDAWTL [MYL5], the median enrichment is 0.467. “RVAVWEPLCLAPGYPGPGNLRAGERWGGRHAEVLLVTGLPSLTCTYLHPELSSSPSSCLLLPTCLPSAGAPRPTHSYCTVHFI [SLC36A1]”: the median enrichment worked out at 3.4. Next, “QHLPEETPLPTLPERGSLRTGWRRWGPSRAPGALPGMSRPTHPKAGAAAPCCPSPGLGNDDPPKSPSAPQTQGLRPPAPGIRE [FXYD7]”: 0.759; LISLSKSIKRESSLQK [SYNGR4]: 8.85. CHRGKRRKSC [CLDN1]: the median enrichment was 0.437. For the substance “WPRLSTCHLLACLTLRTHLPGPSLFHPREAELPKTQVFSYLFPILRGFP [ZDHHC18]”, the median enrichment was determined as 17.8.

With RGKTWKRPACLQ [RRM1], the median enrichment came to 0.421. WSAVA [EFCAB2]: the median enrichment stood at 0.771.

With SREDVKCLSVNCSAVSKQSSNLQY [RIT1], the median enrichment was 0.34. In the case of SKWADE [PLPP5], the median enrichment is 0.25. LVRIFNIFQKCIYIVLLCFFHCTL [SLC39A12]: the median enrichment turned out to be 9.98. As for YISTLFLKLTFQCH [GPNMB], the median enrichment is 7.14.

Consider “WPHPAPPPPRPTRRPPDSSPGASSATPSLHPWGPSPPACTEQGLGVSWEA [ITGB4]”, for which the median enrichment is 1.34. On to “YRSRHLPQTWGGGPASSSTTLAPSLLTWVLAF [SCRIB]”, for which the median enrichment came out at 13.1. As for YKVPLANCLEAQHNPKALFR [HIST1H1E], the median enrichment came out at 6.29. As to “HTTGQGCGAGAIPAPFPGPRGLGSLPSHPGLVPPGAPTVEIRRGWNGGRGGAGGPHPSAALGLGPHPSGGPEAGGGNPRGWLF [GNB2]”, the median enrichment was 0.37. Take LWLSCLQYLNFKSKSIY [IFNG]: the median enrichment came out at 13.2. As for “YSGLPVASSSTTELQTNHPKCRLDGEGKDWGGRVNSEGCPLPIPPGP [PODXL]”, the median enrichment is 21.5. On to “RAPVGKGGGLRGRGWMPRAPKPPFPFVSKGVRSELRKRASECVSLEGLGALWCYHLETCLMPPCLPMEDRLQELGPCGNLACF [MTA2]”, for which the median enrichment came to 5.52. As for CLERW [LCOR], the median enrichment stood at 1.17. With YGSRRILTHRKGAHGTQVKEVLLARYGGSRL [SMYD4], the median enrichment amounted to 5.15. Regarding YYYYYYYY [Tyr08], the median enrichment stood at 5.87. Regarding QHWGRLPHPASGKPVAGHRVVPPVPS [SCLY], the median enrichment came to 11. Turning to SPIQKFFLILFHLPISC [TRIO], the median enrichment worked out at 7.34. Regarding “SVGEWAGMCILLPNSSIQDCAHIRSTRTSSHQHKNINRNAALSTV [WFDC10A]”, the median enrichment turned out to be 5.12. As for QSSAQRRGSMC [FAM49A], the median enrichment was 0.176.

In the case of LRICRRFPFMKH [CUL4A], the median enrichment came out at 8.83.

Take “LFIRSHGPITITLFSAFLLSSFLLSSPLLSSPLLPSPLCFFFFFFSFLWRSFALVAQAAVQWLNLGSLQPLPPRFK [GFRAL]”: the median enrichment came out at 7.15. The figure for GWVRISTTFLDTVK [HBS1L] is 11.5; for LLLLLLLLL [Leu09] it is 11.2. Take YILLKVF [LY75]: the median enrichment stood at 4.38. The figure for “KISVETYTVSSQLLMVLMSLDLDTGLVPSLVSKCLILRVK [VHL]” is 5.01; for SVWGLAPCSPGPHCSHTLRLGPPSLLWC [TOM1] it is 8.98; for RYQKKK [STARD6] it is 0.951. The figure for YKSDCSVRIYIYRFQSNKWGNR [CCNG2] is 4.91; for CGRPELSRPPPALLGAGVLDPWHLPGPLT [LLGL1] it is 2.46; for QSSQSSARP [SNX32] it is 0.324. For the substance “GAFFLEEESENFQTTAADSALMGCWLIGVLSMGDWNFFFV [ZNHIT6]”, the median enrichment is 8.19.

As for “QRRERCASILEGQQEAELFCLDSHHGPFAENCLGFQQLHICICEL [TAFA4]”, the median enrichment was 18.2. For the substance SQESRASLPRIAFIPKFAWK [CMBL], the median enrichment was 2.33.

“RAWVLTPGRATLSDLKMRILGTGCLSPQQNQNESLKAQDSAFATLPLSWYRRWM [ZNF410]”: the median enrichment came out at 8.88.

For the substance RGQAAPVLGEGG [DEPDC5], the median enrichment turned out to be 3.76.

Regarding STVKEGVFVWTR [DSC1], the median enrichment came to 2.35.

With “PWTWYTSMWSCWARGVLCAVNSVGSCSGVGARFLPPWAEGPFPLVLCPHPPPFSCSWASALPRASQVLLGREGNGEKGEASSV [KLHDC3]”, the median enrichment is 6.21.

As for “YWWLVVMNSYSVASSLPASHLPSTSQLLPSLTEANIFI [NTRK3]”, the median enrichment is 23.2. As for “EDTPSPDSTGNRSSPDSPPRRASPRPCTGSEASVTLPLCSPVP [KDM2A]”, the median enrichment was 0.106.

Regarding “EKTVCKRSGVQEITSFDRSMYRKFKFCLRLHKLGAFLRCFSCSNLFVS [SRSF3]”, the median enrichment is 10. For the substance “LGLLALTLQPTLAVWPSPGSFPAPLPLFPVLLNSPSWRVQALGMGGTRPHSFHRALRPDTADQPHSAQEAASGVGAQRGTAAS [BAP1]”, the median enrichment worked out at 8.12. The figure for “SSCCHQLALWPRARCLPFMFPHLQSELVVPDDLRSHDLLTCPMILYFVGRSIKQLLLLLCANHSCNFCSAYLPLFEKHAKGSF [ADAMTSL1]” is 4.11; for YRQK [CCR2] it is 0.225; for LGHANNQSCSNFKPVTAHNRPGSELCEGP [CDON] it is 0.661. The figure for YTLGKITYLSSCE [OR10G8] is 13.7. With CCCCCCCC [Cys08], the median enrichment turned out to be 8.63.

In the case of “LPARPHGQPVASCRPHSPGTVSCLCVRPPLPCLLRHPPPHIHTQRFDKLLVFNE [SMTN]”, the median enrichment came out at 7.46. On to LKSP [SPATA5L1], for which the median enrichment amounted to 0.47.
